According to the RNAGym collection of RNA variant scans (doi:10.1101/gr.219683.116):

B1: mRNA-splicing (parent)
chain: AGUUGCUGCUGGGAGCUCCAGCACAGUGAAAUGGACAGAAGGGCAGAGCAA

Variants of: B1
Assay: exon inclusion enrichment index; higher = more inclusion; WT1 exon 5 minigene, HEK293

| Variant | exon inclusion enrichment index |
| --- | --- |
| AGUUAGGGAUGGGAGCUCCAGCACAGUGUCAUGGACAGAAGGGCAGAGCAA | 0.000854 |
| AGUUAGGGAUGGGAGCUCCAGCACAGUGUGAUGGACAGAAGGGCAGAGCAA | 0.00279 |
| AGUUAGGGAUGGGAGCUCCAGCACAGUGUUAUGGACAGAAGGGCAGAGCAA | 0.000968 |
| AGUUAGGGAUGGGAGCUCCAGCACAGUGAAAUGGACAGAAGGGCCGAGCAA | 0.00288 |
| AGUUAGGGAUGGGAGCUCCAGCACAGUGAACGGGACAGAAGGGCAGAGCAA | 0.00133 |
| AGUUAGGGAUGGGAGCUCCAGCACAGUGAACCGGACAGAAGGGCAGAGCAA | 0.00479 |
| AGUUAGGGAUGGGAGCUCCAGCACAGUGAACAGGACAGAAGGGCAGAGCAA | 0.00457 |
| AGUUAGGGAUGGGAGCUCCAGCACAGUGACGUGGACAGAAGGGCAGAGCAA | 0.00621 |
| AGUUAGGGAUGGGAGCUCCAGCACAGUGACUUGGACAGAAGGGCAGAGCAA | 0.00118 |
| AGUUAGGGAUGGGAGCUCCAGCACAGUGACCUGGACAGAAGGGCAGAGCAA | 0.00182 |
| AGUUAGGGAUGGGAGCUCCAGCACAGUGAAAUGGACGUAAGGGCAGAGCAA | 0.000981 |
| AGUUAGGGAUGGGAGCUCCAGCACAGUGAAAUGGACGAAAGGGCAGAGCAA | 0.0012 |
| AGUUAGGGAUGGGAGCUCCAGCACAGUGAAAUGGACGCAAGGGCAGAGCAA | 0.00203 |
| AGUUAGGGAUGGGAGCUCCAGCACAGUGAAAUGGACCCAAGGGCAGAGCAA | 0.00112 |
| AGUUAGGGAUGGGAGCUCCAGCACAGUGAAAUGGACCUAAGGGCAGAGCAA | 0.000751 |
| AGUUAGGGAUGGGAGCUCCAGCACAGUGAAAUGGACCAAAGGGCAGAGCAA | 0.00086 |
| AGUUAGGGAUGGGAGCUCCAGCACAGUGAAAUGGACAGCCGGGCAGAGCAA | 0.0091 |
| AGUUAGGGAUGGGAGCUCCAGCACAGUGAAAUGGACAGCGGGGCAGAGCAA | 0.0112 |
| AGUUAGGGAUGGGAGCUCCAGCACAGUGAAAUGGACAGCUGGGCAGAGCAA | 0.00672 |
| AGUUAGGGAUGGGAGCUCCAGCACAGUGAUAUGGACAGAAGGGCAGAGCAA | 0.00076 |
| AGUUAGGGAUGGGAGCUCCAGCACAGUGAGAUGGACAGAAGGGCAGAGCAA | 0.00525 |
| AGUUAGGGAUGGGAGCUCCAGCACAGUGACAUGGACAGAAGGGCAGAGCAA | 0.00196 |
| AGUUAGGGAUGGGAGCUCCAGCACAGUGAAAUGGCCAGAAGGGCAGAGCAA | 0.00244 |
| AGUUAGGGAUGGGAGCUCCAGCACAGUGAAAUGGGCAGAAGGGCAGAGCAA | 0.00109 |
| AGUUAGGGAUGGGAGCUCCAGCACAGUGAAAUGGUCAGAAGGGCAGAGCAA | 0.000728 |
| AGUUAGGGAUGGGAGCUCCAGCACAGUGAACUGGACAGAAGGGCAGAGCAA | 0.00349 |

| Variant | exon inclusion enrichment index |
| --- | --- |
| AGUUAGGGAUGGGAGCUCCAGCACAGUGAAGUGGACAGAAGGGCAGAGCAA | 0.00766 |
| AGUUAGGGAUGGGAGCUCCAGCACAGUGAAUUGGACAGAAGGGCAGAGCAA | 0.00278 |
| AGUUAGGGAUGGGAGCUCCAGCACAGUGAAAUGGACAGACGGGCAGAGCAA | 0.00374 |
| AGUUAGGGAUGGGAGCUCCAGCACAGUGAAAUGGACAGAUGGGCAGAGCAA | 0.00193 |
| AGUUAGGGAUGGGAGCUCCAGCACAGUGAAAUGGACAGAGGGGCAGAGCAA | 0.00228 |
| AGUUAGGGAUGGGAGCUCCAGCACGUUGAAAUGGACAGAAGGGCAGAGCAA | 0.0111 |
| AGUUAGGGAUGGGAGCUCCAGCACGCUGAAAUGGACAGAAGGGCAGAGCAA | 0.0234 |
| AGUUAGGGAUGGGAGCUCCAGCACGAUGAAAUGGACAGAAGGGCAGAGCAA | 0.0192 |
| AGUUAGGGAUGGGAGCUCCAGCACAGUGGCAUGGACAGAAGGGCAGAGCAA | 0.000858 |
| AGUUAGGGAUGGGAGCUCCAGCACAGUGGGAUGGACAGAAGGGCAGAGCAA | 0.00214 |
| AGUUAGGGAUGGGAGCUCCAGCACAGUGGUAUGGACAGAAGGGCAGAGCAA | 0.000871 |
| AGUUAGGGAUGGGAGCUCCAGCACAGUGCGAUGGACAGAAGGGCAGAGCAA | 0.0167 |
| AGUUAGGGAUGGGAGCUCCAGCACAGUGCCAUGGACAGAAGGGCAGAGCAA | 0.00169 |
| AGUUAGGGAUGGGAGCUCCAGCACAGUGCUAUGGACAGAAGGGCAGAGCAA | 0.00149 |
| AGUUAGGGAUGGGAGCUCCAGCACAGUGAAAUGGACAGAUAGGCAGAGCAA | 0.000658 |
| AGUUAGGGAUGGGAGCUCCAGCACAGUGAAAUGGACAGAUUGGCAGAGCAA | 0.000481 |
| AGUUAGGGAUGGGAGCUCCAGCACAGUGAAAUGGACAGAUCGGCAGAGCAA | 0.0209 |
| AGUUAGGGAUGGGAGCUCCAGCACAGUGCAAUGGACAGAAGGGCAGAGCAA | 0.00344 |
| AGUUAGGGAUGGGAGCUCCAGCACAGUGGAAUGGACAGAAGGGCAGAGCAA | 0.00111 |
| AGUUAGGGAUGGGAGCUCCAGCACAGUGUAAUGGACAGAAGGGCAGAGCAA | 0.000861 |
| AGUUAGGGAUGGGAGCUCCAGCACAGUGAAUAGGACAGAAGGGCAGAGCAA | 0.000867 |
| AGUUAGGGAUGGGAGCUCCAGCACAGUGAAUGGGACAGAAGGGCAGAGCAA | 0.0027 |
| AGUUAGGGAUGGGAGCUCCAGCACAGUGAAUCGGACAGAAGGGCAGAGCAA | 0.00119 |
| AGUUAGGGAUGGGAGCUCCAGCACAGUGAAAUGGACAGACCGGCAGAGCAA | 0.0197 |
| AGUUAGGGAUGGGAGCUCCAGCACAGUGAAAUGGACAGACUGGCAGAGCAA | 0.00114 |
